# In patent US20250101096A1 (SERA PROGNOSTICS, published 2025):
# T1: human sex hormone-binding globulin (SHBG) (human, UniProt P04278 30-402, O-linked glycan at T36 (native glycosylated form))
# T1 construct: Purified human SHBG, the SHBG antigen of the SPR runs, or SHBG in human serum; also called SHBG protein
# T1 sequence: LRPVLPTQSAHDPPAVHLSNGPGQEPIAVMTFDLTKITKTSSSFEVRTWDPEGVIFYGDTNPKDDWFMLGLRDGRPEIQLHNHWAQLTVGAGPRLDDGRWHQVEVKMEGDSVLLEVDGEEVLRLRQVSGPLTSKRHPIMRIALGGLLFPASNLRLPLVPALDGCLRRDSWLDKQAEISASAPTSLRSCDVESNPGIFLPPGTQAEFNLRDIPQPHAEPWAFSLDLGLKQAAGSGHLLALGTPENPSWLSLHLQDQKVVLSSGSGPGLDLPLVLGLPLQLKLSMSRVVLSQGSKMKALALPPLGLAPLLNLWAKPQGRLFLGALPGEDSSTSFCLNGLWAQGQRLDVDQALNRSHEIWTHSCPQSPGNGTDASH
# T2: C-terminal IBP4 fragment (amino acids 157-258) (human, UniProt P22692 157-258)
# T2 construct: also called CT-IBP4; C-term IBP4
# T2 sequence: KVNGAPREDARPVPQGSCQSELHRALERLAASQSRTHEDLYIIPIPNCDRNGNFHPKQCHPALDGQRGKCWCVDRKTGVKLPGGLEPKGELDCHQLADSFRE
# B1: anti-SHBG antibody clone variant 4G10.F8 (antibody, mouse IgG2a, kappa)
# heavy: QVQLQQPGAELVKPGASVKMSCKASGYTFTGYWMHWVKQRPGQGLEWIGVIDPSTGYTTYNEKFKGKATLTVDTSSNTAYMQLSSLTSEDSAVYYCTREPLVTADFEYWGQGTTLTVSSAKTTAPSVYPLAPVCGDTTGSSVTLGCLVKGYFPEPVTLTWNSGSLSSGVHTFPAVLQSDLYTLSSSVTVTSSTWPSQSITCNVAHPASSTKVDKKIEPRGPTIKPCPPCKCPAPNLLGGPSVFIFPPKIKDVLMISLSPIVTCVVVDVSEDDPDVQISWFVNNVEVHTAQTQTHREDYNSTLRVVSALPIQHQDWMSGKEFKCKVNNKDLPAPIERTISKPKGSVRAPQVYVLPPPEEEMTKKQVTLTCMVTDFMPEDIYVEWTNNGKTELNYKNTEPVLDSDGSYFMYSKLRVEKKNWVERNSYSCSVVHEGLHNHHTTKSFSRTPG
# light: DIVMTQSQKFMSTSVGDRISVTCKASQNVDTNVAWYRQKPGQSPKALIYSASYRFSGVPDRFTGSGSGTDFTLTISTFQSEDLAEYFCQQYDSYPYTFGGGTKLEIKRADAAPTVSIFPPSSEQLTSGGASVVCFLNNFYPKDINVKWKIDGSERQNGVLNSWTDQDSKDSTYSMSSTLTLTKDEYERHNSYTCEATHKTSTSPIVKSFNRNEC
# notes: Mouse monoclonal; variant form expressed from a standard backbone in CHO cells; also called SHBG (4G10.F8) Anti SHBG v1; SHBG #6
# B2: anti-IBP4 antibody clone variant 5B3.G9 (antibody, mouse IgG1, kappa)
# heavy: EVQLQQSGPELVKPGASAKISCKASGYTFTDYYMNWVKQSHGKSLEWIGDINPNNGGSAYNQKFKGKATLTVDKSSSTAYMELRSLTSEDSAVYYCARWDGGFDYWGQGTTLTVSSAKTTPPSVYPLAPGSAAQTNSMVTLGCLVKGYFPEPVTVTWNSGSLSSGVHTFPAVLQSDLYTLSSSVTVPSSTWPSQTVTCNVAHPASSTKVDKKIVPRDCGCKPCICTVPEVSSVFIFPPKPKDVLTITLTPKVTCVVVDISKDDPEVQFSWFVDDVEVHTAQTKPREEQINSTFRSVSELPIMHQDWLNGKEFKCRVNSAAFPAPIEKTISKTKGRPKAPQVYTIPPPKEQMAKDKVSLTCMITNFFPEDITVEWQWNGQPAENYKNTQPIMDTDGSYFVYSKLNVQKSNWEAGNTFTCSVLHEGLHNHHTEKSLSHSPG
# light: DIVMTQSQKFMSTSVRDRVSVTCKASQNVGTNVAWYQQKPGQSPKALIYSASYRYSGVPDRFTGSGSGTAFTLTISNVQSEDLAEYFCQQYNIYPLTFGAGTKLELKRADAAPTVSIFPPSSEQLTSGGASVVCFLNNFYPKDINVKWKIDGSERQNGVLNSWTDQDSKDSTYSMSSTLTLTKDEYERHNSYTCEATHKTSTSPIVKSFNRNEC
# notes: Mouse monoclonal; variant form expressed in CHO cells; also called IBP4 (5B3.G9) V1; IBP4-5B3.G9
# B3: anti-IBP4 antibody clone variant 7D6.G4 (antibody, mouse IgG1, kappa, V domains shown)
# VH: EVQLQQSGPELVKPGASVKISCKASGYTFTDYYMNWVKQSHGKSLEWIGDINPNNGGSAYNQKFKGKATLTVDKSSSTAYMELRSLTSEDSAVYYCARWDGGFDYWGQGTTLTVSS
# VL: DIVMTQSQKFMSTSVRDRVSVTCKASQNVGTNVAWYQQKPGQSPKALIYSASYRYSGVPDRFTGSGSGTDFTLTISNVQSEDLAEYFCQQYNSYPLTFGAGTKLELKR
# notes: Mouse monoclonal; variant form; also called IBP4 (7D6.G4) V2; IBP4-7D6.G4
# Legend:
# [1] = molecular target: T1, human sex hormone-binding globulin …; assay: Biacore, hybridoma supernatant
# [2] = molecular target: T1, human sex hormone-binding globulin …; assay: SPR (Biacore T100), mAb captured on anti-mouse IgG, SHBG antigen injected, 1:1 fit, assay 1
# Protocol: (§1) Surface plasmon resonance experiments were performed on a BiacoreT100 to characterize the anti-SHBG and anti-IBP4 antibodies. Anti-mouse-IgG antibody was amine coupled to ˜500 RU on a C1 sensor chip using standard NHS/EDC activation. Test monoclonal antibodies were captured on the anti-mouse-IgG surfaces. The binding for the Sex Hormone Binding Globulin Antigen to anti-SHBG variant antibodies 4G10.F8 and 13C9.E5 were measured in a multi-cycle kinetic mode. Binding studies were performed in PBS buffer+0.05% P20+3 mM EDTA at 25 degrees C. SHBG was captured for 1 minute at 200 nM and regenerated with 1/100 H3PO4 after each cycle. SHBG was captured to similar densities on 2 different flow cells followed by an injection of the SHBG antigen in a 3-fold titration series up to 600 nM over the two surfaces. The responses were processed by subtracting the buffer injection to correct for drift. The data sets fit well to a simple 1:1 interaction model using SCRUBBER (Biologic Software Pty Ltd). The antigen concentration series was tested three times over each surface, giving rise to the kinetic an affinity parameters summarized below.
# [3] = molecular target: T1, human sex hormone-binding globulin …; assay: SPR (Biacore T100), mAb captured on anti-mouse IgG, SHBG antigen injected, 1:1 fit, assay 2
# Protocol: as §1
# [4] = molecular target: T1, human sex hormone-binding globulin …; assay: SPR (Biacore T100), mAb captured on anti-mouse IgG, SHBG antigen injected, 1:1 fit, assay 3
# Protocol: as §1
# [5] = molecular target: T1, human sex hormone-binding globulin …; assay: SPR (Biacore T100), mAb captured on anti-mouse IgG, SHBG antigen injected, average of 3 assays
# Protocol: as §1
# [6] = molecular target: T1, human sex hormone-binding globulin …; assay: SPR (Biacore T100), mAb captured on anti-mouse IgG, SHBG antigen injected, 1:1 fit, assay 3; assay 3
# Protocol: as §1
# [7] = molecular target: T2, C-terminal IBP4 fragment (amino acids …); assay: SPR (Biacore T100), mAb amine-coupled to C1 chip, CT-IBP4 injected, average
# Protocol: (§2) For this reason, anti-IBP4 antibodies were directly amine coupled using standard NHS/EDC coupling to a C1 sensor chip. Variant 5B3.G9 was coupled on two surfaces at 350 RU and the other at 150 RU. […] Antibodies were measured in a multi-cycle kinetic mode. Binding studies were performed in PBS buffer+0.05% P20+3 mM EDTA at 25 degrees C. CT-IBP4 was tested in a 3-fold concentration series up to 333 nM and injected at 100 uL/min for 3 minutes followed by a 10 minute dissociation phase. Surfaces were regenerated with 1/100 H3PO4 after each cycle. The antigen binding responses were processed by subtracting the signal from a reference surface with no antibody captured along with a buffer injection. The processed response data were globally fit to a simple 1:1 interaction using SCRUBBER (Biologic Software Pty Ltd). The antigen concentration series was tested three times over each surface, giving rise to the kinetic an affinity parameters summarized in the tables below.
# [8] = molecular target: T2, C-terminal IBP4 fragment (amino acids …); assay: SPR (Biacore T100), mAb amine-coupled to C1 chip, CT-IBP4 injected, 1:1 fit, first surface assay 1
# Protocol: as §2
# [9] = molecular target: T2, C-terminal IBP4 fragment (amino acids …); assay: SPR (Biacore T100), mAb amine-coupled to C1 chip, CT-IBP4 injected, 1:1 fit, first surface assay 2
# Protocol: as §2
# [10] = molecular target: T2, C-terminal IBP4 fragment (amino acids …); assay: SPR (Biacore T100), mAb amine-coupled to C1 chip, CT-IBP4 injected, 1:1 fit, first surface assay 3
# Protocol: as §2
# [11] = molecular target: T2, C-terminal IBP4 fragment (amino acids …); assay: SPR (Biacore T100), mAb amine-coupled to C1 chip, CT-IBP4 injected, 1:1 fit, second surface assay 1
# Protocol: as §2
# [12] = molecular target: T2, C-terminal IBP4 fragment (amino acids …); assay: SPR (Biacore T100), mAb amine-coupled to C1 chip, CT-IBP4 injected, 1:1 fit, second surface assay 2
# Protocol: as §2
# [13] = molecular target: T2, C-terminal IBP4 fragment (amino acids …); assay: SPR (Biacore T100), mAb amine-coupled to C1 chip, CT-IBP4 injected, 1:1 fit, second surface assay 3
# Protocol: as §2
# [14] = molecular target: T2, C-terminal IBP4 fragment (amino acids …); assay: SPR (Biacore T100), mAb amine-coupled to C1 chip, CT-IBP4 injected, 1:1 fit, assay 1
# Protocol: as §2
# [15] = molecular target: T2, C-terminal IBP4 fragment (amino acids …); assay: SPR (Biacore T100), mAb amine-coupled to C1 chip, CT-IBP4 injected, 1:1 fit, assay 2
# Protocol: as §2
# [16] = molecular target: T2, C-terminal IBP4 fragment (amino acids …); assay: SPR (Biacore T100), mAb amine-coupled to C1 chip, CT-IBP4 injected, 1:1 fit, assay 3
# Protocol: as §2
binder,measurement,setting,value
B1,Kd,[1],0.95 nM
same,koff,[1],6.2e-05 s⁻¹
same,kon,[1],65000 M⁻¹ s⁻¹
same,Kd,[2],1.05 nM
same,koff,[2],4.57e-05 s⁻¹
same,kon,[2],43700 M⁻¹ s⁻¹
same,Kd,[3],1.91 nM
same,koff,[3],8.37e-05 s⁻¹
same,kon,[3],43900 M⁻¹ s⁻¹
same,Kd,[4],3.66 nM
same,kon,[4],39600 M⁻¹ s⁻¹
same,Kd,[5],2 nM
same,koff,[5],9e-05 s⁻¹
same,kon,[5],42000 M⁻¹ s⁻¹
same,koff,[6],0.000145 s⁻¹
B2,Kd,[7],31 nM
same,koff,[7],0.0041 s⁻¹
same,kon,[7],150000 M⁻¹ s⁻¹
same,Kd,[8],38.2 nM
same,koff,[8],0.00447 s⁻¹
same,kon,[8],117000 M⁻¹ s⁻¹
same,Kd,[9],37 nM
same,koff,[9],0.00419 s⁻¹
same,kon,[9],113000 M⁻¹ s⁻¹
same,Kd,[10],43.1 nM
same,koff,[10],0.00466 s⁻¹
same,kon,[10],108000 M⁻¹ s⁻¹
same,Kd,[11],25.8 nM
same,koff,[11],0.00404 s⁻¹
same,kon,[11],157000 M⁻¹ s⁻¹
same,Kd,[12],17.1 nM
same,koff,[12],0.0035 s⁻¹
same,kon,[12],204000 M⁻¹ s⁻¹
same,Kd,[13],22.3 nM
same,koff,[13],0.00392 s⁻¹
same,kon,[13],176000 M⁻¹ s⁻¹
B3,Kd,[7],76 nM
same,koff,[7],0.013 s⁻¹
same,kon,[7],180000 M⁻¹ s⁻¹
same,Kd,[14],96.2 nM
same,koff,[14],0.0146 s⁻¹
same,kon,[14],152000 M⁻¹ s⁻¹
same,Kd,[15],56.1 nM
same,koff,[15],0.0119 s⁻¹
same,kon,[15],211000 M⁻¹ s⁻¹
same,Kd,[16],75.9 nM
same,koff,[16],0.0128 s⁻¹
same,kon,[16],168000 M⁻¹ s⁻¹
